# Changes are numbered by the printed parent chain. In names and notes the source's numbering stands.
# B1: W264D: CD19 variant (protein)
# chain: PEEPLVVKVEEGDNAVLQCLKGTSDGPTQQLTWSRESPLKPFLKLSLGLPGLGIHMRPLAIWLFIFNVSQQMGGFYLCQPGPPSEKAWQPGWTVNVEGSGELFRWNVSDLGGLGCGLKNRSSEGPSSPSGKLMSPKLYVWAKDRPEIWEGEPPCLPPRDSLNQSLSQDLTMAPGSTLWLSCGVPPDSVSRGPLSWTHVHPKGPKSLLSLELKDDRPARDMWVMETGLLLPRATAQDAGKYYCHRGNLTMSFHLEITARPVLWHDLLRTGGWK
# B2: K212A: CD19 variant (protein)
# chain: B1 chain with K212A, D264W
# B3: W262K: CD19 variant (protein)
# chain: B1 chain with W262K, D264W
# B4: W262D: CD19 variant (protein)
# chain: B1 chain with W262D, D264W
# B5: L261K: CD19 variant (protein)
# chain: B1 chain with L261K, D264W
# B6: A257K: CD19 variant (protein)
# chain: B1 chain with A257K, D264W
# B7: F64V: CD19 variant (protein)
# chain: B1 chain with F64V, D264W
# B8: V260S: CD19 variant (protein)
# chain: B1 chain with V260S, D264W
# B9: R57G: CD19 variant (protein)
# chain: B1 chain with R57G, D264W
# B10: L20G: CD19 variant (protein)
# chain: B1 chain with L20G, D264W
# B11: W264N: CD19 variant (protein)
# chain: B1 chain with D264N
# B12: W62T/F64V/F66P: CD19 variant (protein)
# chain: B1 chain with W62T, F64V, F66P, D264W
# B13: W62D/F64L/F66P: CD19 variant (protein)
# chain: B1 chain with W62D, F64L, F66P, D264W
# B14: W62H/F64F/F66R: CD19 variant (protein)
# chain: B1 chain with W62H, F66R, D264W
# B15: W62T/F64A/F66S: CD19 variant (protein)
# chain: B1 chain with W62T, F64A, F66S, D264W
# B16: E224G/G226R/L228V: CD19 variant (protein)
# chain: B1 chain with E224G, G226R, L228V, D264W
# B17: E224E/G226E/L228V: CD19 variant (protein)
# chain: B1 chain with G226E, L228V, D264W
# B18: W62W/F64V/F66A: CD19 variant (protein)
# chain: B1 chain with F64V, F66A, D264W
# B19: E224G/G226E/L228I: CD19 variant (protein)
# chain: B1 chain with E224G, G226E, L228I, D264W
# B20: W62D/F64V/F66M: CD19 variant (protein)
# chain: B1 chain with W62D, F64V, F66M, D264W
# B21: W62R/F64V/F66R: CD19 variant (protein)
# chain: B1 chain with W62R, F64V, F66R, D264W
# B22: E224G/G226D/L228V: CD19 variant (protein)
# chain: B1 chain with E224G, G226D, L228V, D264W
# B23: W62E/F64R/F66P: CD19 variant (protein)
# chain: B1 chain with W62E, F64R, F66P, D264W
# B24: W62E/F64W/F66R: CD19 variant (protein)
# chain: B1 chain with W62E, F64W, F66R, D264W
# B25: E224G/G226A/L228T: CD19 variant (protein)
# chain: B1 chain with E224G, G226A, L228T, D264W
# B26: W62S/F64V/F66A: CD19 variant (protein)
# chain: B1 chain with W62S, F64V, F66A, D264W
# B27: L59N/I61V/L63L: CD19 variant (protein)
# chain: B1 chain with L59N, I61V, D264W
# B28: W62E/F64C/F66S: CD19 variant (protein)
# chain: B1 chain with W62E, F64C, F66S, D264W
# B29: W62T/F64R/F66Q: CD19 variant (protein)
# chain: B1 chain with W62T, F64R, F66Q, D264W
# B30: W62E/F64V/F66V: CD19 variant (protein)
# chain: B1 chain with W62E, F64V, F66V, D264W
# B31: W62D/F64V/F66R: CD19 variant (protein)
# chain: B1 chain with W62D, F64V, F66R, D264W
# B32: E224D/G226V/L228V: CD19 variant (protein)
# chain: B1 chain with E224D, G226V, L228V, D264W
# B33: E224G/G226R/L228F: CD19 variant (protein)
# chain: B1 chain with E224G, G226R, L228F, D264W
# B34: W62E/F64R/F66R: CD19 variant (protein)
# chain: B1 chain with W62E, F64R, F66R, D264W
# B35: W62W/F64S/F66S: CD19 variant (protein)
# chain: B1 chain with F64S, F66S, D264W
# B36: W62A/F64R/F66L: CD19 variant (protein)
# chain: B1 chain with W62A, F64R, F66L, D264W
# B37: E224G/G226V/L228V: CD19 variant (protein)
# chain: B1 chain with E224G, G226V, L228V, D264W
# B38: W62E/F64E/F66V: CD19 variant (protein)
# chain: B1 chain with W62E, F64E, F66V, D264W
# B39: W62Y/F64S/F66R: CD19 variant (protein)
# chain: B1 chain with W62Y, F64S, F66R, D264W
# B40: W62S/F64R/F66S: CD19 variant (protein)
# chain: B1 chain with W62S, F64R, F66S, D264W
# B41: W62T/F64V/F66F: CD19 variant (protein)
# chain: B1 chain with W62T, F64V, D264W
# B42: W62R/F64A/F66F: CD19 variant (protein)
# chain: B1 chain with W62R, F64A, D264W
# B43: E224G/G226S/L228M: CD19 variant (protein)
# chain: B1 chain with E224G, G226S, L228M, D264W
# System: FMC63
# Sequence (as listed by the source): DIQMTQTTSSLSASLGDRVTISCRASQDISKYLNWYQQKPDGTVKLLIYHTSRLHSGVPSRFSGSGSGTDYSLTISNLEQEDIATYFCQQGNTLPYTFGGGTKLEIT
# Sequence (as listed by the source): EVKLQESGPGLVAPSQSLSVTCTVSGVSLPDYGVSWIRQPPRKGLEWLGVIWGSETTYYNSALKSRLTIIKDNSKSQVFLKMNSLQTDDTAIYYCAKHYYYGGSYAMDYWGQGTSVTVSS
# Test: CD19 variant binding to anti-CD19 antibody FMC63 (score)
# Conditions: Table 1A, CD19 single mutants (positions of SEQ ID NO:2)
row,Molecule,FMC63 Binding Score
1,B1,6.2 ± .6
2,B2,6.1 ± .6
3,B3,8.2 ± .7
4,B4,8.3 ± .8
5,B5,6.2 ± .6
6,B6,6.1 ± .5
7,B7,6. ± .4
8,B8,5.8 ± .3
9,B9,5.7 ± .2
10,B10,5.7 ± .2
11,B11,9. ± 1.3

# Same assay, conditions: Table 1B, CD19 triple mutants
row,Molecule,FMC63 Binding Score
1,B12,16.6 ± 5.5
2,B13,16.3 ± 5.5
3,B14,12.4 ± 2.3
4,B15,15.7 ± 5.6
5,B16,11. ± .9
6,B17,11.6 ± 1.2
7,B18,13.7 ± 3.2
8,B19,14.3 ± 3.4
9,B20,16. ± 5.6
10,B21,12.3 ± 1.6
11,B22,12. ± 1.2
12,B23,16.5 ± 5.5
13,B24,14.2 ± 3.2
14,B25,12.7 ± 2.4
15,B26,13.5 ± 3.2
16,B27,13.9 ± 3.2

row,Molecule,FMC63 Binding Score
1,B28,12.6 ± 2.3
2,B29,16.3 ± 5.5
3,B30,13.4 ± 2.5
4,B31,12.6 ± 2.3
5,B32,13.8 ± 3.4
6,B33,12.8 ± 1.7
7,B34,12.4 ± 2.1
8,B35,14. ± 3.2
9,B36,13.1 ± 2.3
10,B37,11.2 ± 1.
11,B38,16.2 ± 5.5
12,B39,13.7 ± 3.2
13,B40,13.2 ± 2.1
14,B41,13.6 ± 3.2
15,B42,15.9 ± 5.6
16,B43,13.8 ± 3.4

# Reference: US20220387487A1, “COMPOSITIONS AND METHODS FOR TREATMENT OF CANCER” (Aleta Biotherapeutics Inc., priority 2019, published 2022)
